Test results from PMC3167601.
Changes are numbered by the printed parent chain.

Legend:
Experiment in all cases: fluorescence anisotropy
IRF-7 DBD H44A = target: T1, IRF-7 DBD H44A (mouse, UniProt P70434 1-134, H44A)
T1 sequence: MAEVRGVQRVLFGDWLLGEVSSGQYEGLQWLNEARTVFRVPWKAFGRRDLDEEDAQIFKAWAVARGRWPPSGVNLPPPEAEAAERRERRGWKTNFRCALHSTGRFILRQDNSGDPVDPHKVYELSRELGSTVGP

IRF-3 DBD H40A = target: T2, IRF-3 DBD H40A (human, UniProt Q14653 1-113, H40A)
T2 sequence: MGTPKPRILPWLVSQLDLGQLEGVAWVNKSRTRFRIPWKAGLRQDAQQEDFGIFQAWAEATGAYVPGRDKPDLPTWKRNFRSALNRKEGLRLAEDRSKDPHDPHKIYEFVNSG

IRF-7 DBD wild type = target: T3, IRF-7 DBD wild type (mouse, UniProt P70434 1-134)
T3 sequence: T1 sequence with A44H

IRF-3 DBD wild type = target: T4, IRF-3 DBD wild type (human, UniProt Q14653 1-113)
T4 sequence: T2 sequence with A40H

B1: PRDI 15-mer duplex (dsDNA)
DNA 1: GAGAAGTGAAAGTGG
DNA 2: CCACTTTCACTTCTC
IRF-7 DBD H44A
  Kd: 532 nM
IRF-3 DBD H40A
  Kd: 1710 nM
IRF-7 DBD wild type
  Kd: 630 nM
IRF-3 DBD wild type
  Kd: 486 nM
